In patent publication US20240115603A1 (Zymeworks, published 2024):

How the values were obtained:
Assay in all cases: co-expression in Tni insect cells, pulldown via Twin Strep tag on G-CSF, SDS-PAGE
[1] = molecular target: T1, G-CSFR(CRH)E site II design 34 with N-terminal His tag (human, UniProt Q99062 120-331)
T1 construct: also called design #34 G-CSFR(CRH)E
T1 chain: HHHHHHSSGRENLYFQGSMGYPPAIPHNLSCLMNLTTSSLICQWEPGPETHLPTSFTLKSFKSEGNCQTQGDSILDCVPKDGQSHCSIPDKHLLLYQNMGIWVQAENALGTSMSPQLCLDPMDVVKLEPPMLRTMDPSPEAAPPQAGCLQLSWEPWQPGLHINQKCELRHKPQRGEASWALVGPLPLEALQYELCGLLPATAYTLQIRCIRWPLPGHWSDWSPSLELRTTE

[2] = molecular target: T2, G-CSFR(CRH)E site II design 8 with N-terminal His tag (human)
T2 construct: also called design #8 G-CSFR(CRH)E
T2 chain: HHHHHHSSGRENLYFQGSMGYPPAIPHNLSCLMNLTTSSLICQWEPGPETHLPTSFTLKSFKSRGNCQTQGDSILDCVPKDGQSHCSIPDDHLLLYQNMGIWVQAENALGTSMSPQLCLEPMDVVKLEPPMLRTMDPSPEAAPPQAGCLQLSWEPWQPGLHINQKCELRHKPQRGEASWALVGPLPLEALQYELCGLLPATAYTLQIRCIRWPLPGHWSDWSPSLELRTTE

[3] = molecular target: T3, G-CSFR(Ig-CRH)E combination design 402 with N-terminal His tag (human, UniProt Q99062 25-331)
T3 construct: also called design 402 engineered receptor
T3 chain: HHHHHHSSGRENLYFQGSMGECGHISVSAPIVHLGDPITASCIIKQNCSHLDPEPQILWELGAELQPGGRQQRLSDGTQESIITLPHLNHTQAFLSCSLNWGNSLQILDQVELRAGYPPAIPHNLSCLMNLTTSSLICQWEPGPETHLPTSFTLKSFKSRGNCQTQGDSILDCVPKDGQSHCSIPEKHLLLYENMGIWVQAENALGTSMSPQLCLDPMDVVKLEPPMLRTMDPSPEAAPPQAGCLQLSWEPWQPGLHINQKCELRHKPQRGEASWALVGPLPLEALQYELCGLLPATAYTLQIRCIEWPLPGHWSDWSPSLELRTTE

[4] = molecular target: T4, G-CSFR(CRH)E site II design 15 with N-terminal His tag (human)
T4 construct: also called design #15 G-CSFR(CRH)E
T4 chain: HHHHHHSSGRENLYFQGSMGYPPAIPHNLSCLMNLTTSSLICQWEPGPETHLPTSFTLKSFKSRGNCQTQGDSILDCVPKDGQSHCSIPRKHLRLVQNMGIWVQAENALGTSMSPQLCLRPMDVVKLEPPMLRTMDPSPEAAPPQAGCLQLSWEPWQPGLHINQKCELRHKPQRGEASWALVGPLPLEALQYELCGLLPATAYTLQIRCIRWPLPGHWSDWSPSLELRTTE

[5] = molecular target: T5, G-CSFR(CRH)E site II design 9 with N-terminal His tag (human)
T5 construct: also called design #9 G-CSFR(CRH)E
T5 chain: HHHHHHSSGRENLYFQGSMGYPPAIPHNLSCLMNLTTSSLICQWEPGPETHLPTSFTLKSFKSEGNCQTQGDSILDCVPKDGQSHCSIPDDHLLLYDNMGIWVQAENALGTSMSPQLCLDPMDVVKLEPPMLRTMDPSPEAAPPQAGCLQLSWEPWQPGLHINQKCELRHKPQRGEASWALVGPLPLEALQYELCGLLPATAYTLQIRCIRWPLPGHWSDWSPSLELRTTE

[6] = molecular target: T6, G-CSFR(CRH)E site II design 30 with N-terminal His tag (human, UniProt Q99062 120-331)
T6 construct: also called design #30 G-CSFR(CRH)E
T6 chain: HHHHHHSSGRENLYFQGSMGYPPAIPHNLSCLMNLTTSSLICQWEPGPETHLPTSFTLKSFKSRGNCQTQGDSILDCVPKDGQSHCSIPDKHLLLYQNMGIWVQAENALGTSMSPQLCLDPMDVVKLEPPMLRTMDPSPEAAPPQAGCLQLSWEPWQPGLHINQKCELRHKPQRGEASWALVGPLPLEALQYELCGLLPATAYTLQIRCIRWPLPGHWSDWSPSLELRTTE

[7] = molecular target: T7, G-CSFR(CRH)E site II design 35 with N-terminal His tag (human)
T7 construct: also called design #35 G-CSFR(CRH)E
T7 chain: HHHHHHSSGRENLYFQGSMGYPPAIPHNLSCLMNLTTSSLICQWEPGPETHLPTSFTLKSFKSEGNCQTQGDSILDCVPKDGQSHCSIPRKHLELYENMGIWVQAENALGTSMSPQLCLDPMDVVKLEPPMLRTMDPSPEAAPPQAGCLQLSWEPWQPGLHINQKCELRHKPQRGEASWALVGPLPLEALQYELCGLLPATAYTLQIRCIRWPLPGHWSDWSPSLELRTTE

[8] = molecular target: T8, G-CSFR(Ig-CRH)E combination design 401 with N-terminal His tag (human, UniProt Q99062 25-331)
T8 construct: also called design 401 engineered receptor
T8 chain: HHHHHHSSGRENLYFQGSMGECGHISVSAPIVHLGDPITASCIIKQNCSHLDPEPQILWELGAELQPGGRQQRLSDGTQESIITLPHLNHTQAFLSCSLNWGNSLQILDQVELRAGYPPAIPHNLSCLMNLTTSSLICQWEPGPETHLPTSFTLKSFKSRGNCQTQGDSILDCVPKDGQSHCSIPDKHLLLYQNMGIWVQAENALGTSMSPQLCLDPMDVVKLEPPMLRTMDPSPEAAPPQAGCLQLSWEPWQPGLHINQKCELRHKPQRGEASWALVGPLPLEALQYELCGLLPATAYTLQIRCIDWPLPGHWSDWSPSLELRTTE

Measured: binding result

B1: WT G-CSF with C-terminal Twin Strep tag (ligand)
chain: not shown
notes: also called G-CSFWT
no binding: [1] | [2] | [3] | [4] | [5] | [6] | [7] | [8]
